Assay results from PMC6506218.
pKd: −log10 of the molar value.

Molecular target: full-length AgrC-I Q305A in lipid nanodiscs (S. aureus)
Test: fluorescence polarisation

| Substance | pKd |
| --- | --- |
| AIP-I (peptide) | 7.25 |
| AIP-II (peptide) | 6.82 |
